Source: the DeepSol protein solubility set

Test: soluble on expression in E. coli; label from the status in PepcDB or PDB records

Sequence | soluble on expression in E. coli
MGSDKIHHHHHHMSGKGAEYWTKRISEQEMPALSSTVKTLEKLAKDDVSSLAILGRSVMHDNALTSRILKVANSAIYNKGISHVTTVSRAAVVLGFDTIRNICITAKLLSSLLENKGLSEPVYHRLLTLMARAFQAAMLAKMMLKDHDEELQEEVFIAALLYHLGESAFWSMGGETTEQLDARLNQVDEKDANNVVREVLGTSFTQLSMGIAKNWGLGEVLVKSLSNPNERTPEIRSIYLANKISELMASDSKDIAELNHRIKQAADMLDLEVDEFKGRMIQCSHATRKLADTYGAKVLVAFLPDTHQLTLAAEPEAEPIKVREFNVDLQLKKLRELTDCAINKANFNEVITITLSGLLDGIGMDRCAVMLLSPNRKRLQPRVVLGENGDKMKNEFIVELNHDKNVFAESVDLKKPLFIDNPSSEKWRLYTDEELRRHTSVMGFMLAPILVDNKVIGLLYADRHSSERKLAEVDFERFTHFAQLTNLCLSVSVH | not soluble
MGSDKIHHHHHHMTQYEVDIMYEVKLDAFNGPLDLLLHLIQKFEIDIYDIPMQALTEQYMQYVHAMKQLEINIASEYLVLASELLMIKSKMLLPQSTSDMDVDDDPREDLVGRLIEYQNYKEYTAILNDMKEERDFYFTKRPTDLSHLETDESWDPNHTIDLTELIVAYQRVKNRVELNTPKSVEIRKETFTIQQATEQVTSRLKDKDHFNFFSLFTFSEPIEQVVTHFLAILEMSKAGIINIEQQRNFEDINIIRGVNYHFG | not soluble
MTKNPRNNKPKKILDSSYKSKTIWQNYIDALFETFPQLEISEVWAKWDGGNVTKDGGDAKLTANIRTGEHFLKAREAHIVDPNSDIYNTILYPKTGADLPCFGMDLMKFSDKKVIIVFDFQHPREKYLFSVDGLPEDDGKYRFFEMGNHFSKNIFVRYCKPDEVDQYLDTFKLYLTKYKEMIDNNKPVGEDTTVYSDFDTYMTELDPVRGYMKNKFGEGRSEAFVNDFLFSYK | soluble
MSSTAVQPPPPVPPPPPSAVPSAGKGIHSKLYNGMIGAADKFVPAKLRPLWMHPAGPKTIFFWAPVFKWGLVAAGLSDLARPADTISVSGCAALAATGIIWSRYSLVIIPKNYSLFAVNLFVGITQVVQLARAYHYHQSQEKLKQEQQQPAVQNLEHHHHHH | not soluble
MNDNAFTFQTLHPETIMDALFEQGIMVDSGLTPLNSYENRVYQFQDEDRRRFVVKFYRPERWSVDQIREEHQFALELVKDEVPVAAPLAFNGQTLLAHQGYHYAIFPSVGGRQFEADNIDQMEAVGRYLGRLHQTGRKRPFTFRPDIGLAEYLFEPRQVFEDAALIPSGQKAAFLKATDTLLSAVTECWRTDFATLRLHGDCHAGNILWRDGPLFVDLDDARNGPAIQDLWMLLNGDKAEQRMQLETIIEAYEEVSEFDTAEIGLIEPLRAMRLVYYLAWLIRRWGDPAFPKNFPWLTGEDYWQRQTTTFIEQTKILHEPPLQLTPMYLEHHHHHH | not soluble
ADINHGENVFTANCSACHAGGNNVIMPEKTLQKDALSTNQMNSVGAITYQVTNGKNAMPAFGGRLSDDDIEDVASFVLSQSEKSWN | soluble
MSGIFSVYVGNAPFQTTEEELGNFFSSIGQINNVRIVCDRETGRPRGFAFIEFAEEGSAQRAVEQMNGAEFNGRPLRVNLANK | soluble
MVFDKLLEQAGINLEFEDKEIKDSDYLGDVSDLIKIAVIGVGGSGNNTISRLYDLGVQGADLIAMNTDAQHLHQIKAHKKLLLGKSITHGKGSGGDPRIGYRAAEASASEIADIVKDYDLIFLTAGMGNGTGTGATPVIARIIKETARNNGLPQEPLVISVVTFPFKMEGKVRIEKAKAGIEMLLEYSDTVIIIQNDKLIELVPKLPIQVAFRFADEIIARMVKGIVETIKLPSMVNIDYADIYSVMKGGGPALIGIGESDSNNRAVDAVMEALNNKMLDIEFGSGDKALVHFTVGPDVSLEEITKAMEIVYERLGEKSEIKWGAMIEEDMGKTVRAMVIMTGVRSPQILGNINVNALTYSSSSLVVPRDSKIMSESKVDEIFSSIDPRASKLRKGNNSSRINKIFKDLGFYEL | soluble
MSLSKRSIPNVDWANQLENAIRQFVKEKLELIMREEIKNFLEIEQAGTPNMRNGYYQRNLDTQYGRIEGLLVPRDRNGEFQTQLFAPYQRHTGWLEEAIIRMYQSGMSTREIGKFIERILGSTYSPATISRITDVVKEDIEKWHARPLHQRYSVLYLDGLYVKLRRDTVEKEVIYVVLGVNEEGYREILDFFVGGQESAYVWQEILQQLYKRGVKEVLLGVFDGLPGLEEAFKAVYPKADVQRCVVHKVRNTLSRVRKKDQFEMAEDLKLIYRSPNKEIALEMFQQFQSKWSHKYPREVQSWANELDVLLTFMDYPSSIRSVIYTTNAIERTIKEIRKRLKPMNSLSSLEAAEKVVYLTIQDFNEKWAGRKLRGFAEAQEALQRMFEEREGHHHHHH | not soluble
MELDFDKMNGLVPAIIQDNETRKVLMLGFMNKEAYDKTVETGKVTFFSRTKNRLWTKGEESGNFLHVVSIKADCDNDTLLIQADPAGPVCHTGTDTCWGEKNEEPVMFLKALQDFIDKRHEEMPQGSYTTSLFESGINKIAQKVGEEAVETVIEATNGTNERLIYEGADLIYHMIVLLTSKGYRIEDLARELQERHSSTWKKH | not soluble
MYNVVSFNNEGVEHMKPTSEKSKEIRKKYKAPGASDEQLANSIKVASEFEYKNSSTFGWGGVYMVDRFQSMITGRAITNNTQKLLDAQALEEEASKANLKQ | not soluble
MKGGDRAYTRGPSLGWLFAKCCCCFPCRDAYSHSSSENGGKSESVANLQAQPSLNSIHSSPGPKRSTNTLKKWLTSPVRRLNSGKADGNIKKQKKVRDGRKSFDLGSPKPGDETTPQGDSADEKSKKGWGEDEPDEESHTPLPPPMKIFDNDPTQDEMSSSLLAARQASTEVPTAADLVNAIEKLVKNKLSLEGSSYRGSLKDPAGCLNEGMAPPTPPKNPEEEQKAKALRGRMFVLNELVQTEKDYVKDLGIVVEGFMKRIEEKGVPEDMRGKDKIVFGNIHQIYDWHKDFFLAELEKCIQEQDRLAQLFIKHERKLHIYVWYCQNKPRSEYIVAEYDAYFEEVKQEINQRLTLSDFLIKPIQRITKYQLLLKDFLRYSEKAGLECSDIEKAVELMCLVPKRCNDMMNLGRLQGFEGTLTAQGKLLQQDTFYVIELDAGMQSRTKERRVFLFEQIVIFSELLRKGSLTPGYMFKRSIKMNYLVLEENVDNDPCKFALMNRETSERVVLQAANADIQQAWVQDINQVLETQRDFLNALQSPIEYQRKERSTAVMRSQPARLPQASPRPYSSVPAGSEKPPKGSSYNPPLPPLKISTSNGSPGFEYHQPGDKFEASKQNDLGGCNGTSSMAVIKDYYALKENEICVSQGEVVQVLAVNQQNMCLVYQPASDHSPAAEGWVPGSILAPLTKATAAESSDGSIKKSCSWHTLRMRKRAEVENTGKNEATGPRKPKDILGNKVSVKETNSSEESECDDLDPNTSMGILNPNFIQEVAPEFLVPLVDVTCLLGDTVILQCKVCGRPKPTITWKGPDQNILDTDNSSATYTVSSCDSGEITLKICNLMPQDSGIYTCIATNDHGTTSTSATVKVQGVPAAPNRPIAQERSCTSVILRWLPPSSTGNCTISGYTVEYREEGSQIWQQSVASTLDTYLVIEDLSPGCPYQFRVSASNPWGISLPSEPSEFVRLPEYDAAADGATISWKENFDSAYTELNEIGRGRFSIVKKCIHKATRKDVAVKFVSKKMKKKEQAAHEAALLQHLQHPQYITLHDTYESPTSYILILELMDDGRLLDYLMNHDELMEEKVAFYIRDIMEALQYLHNCRVAHLDIKPENLLIDLRIPVPRVKLIDLEDAVQISGHFHIHHLLGNPEFAAPEVIQGIPVSLGTDIWSIGVLTYVMLSGVSPFLDESKEETCINVCRVDFSFPHEYFCGVSNAARDFINVILQEDFRRRPTAATCLQHPWLQPHNGSYSKIPLDTSRLACFIERRKHQNDVRPIPNVKSYIVNRVNQGT | soluble
MPDISIILLGNYAPDQVIHARLLFMRMEQVPGGHHLQILQFRFTIPFRQADFCSLDQSDVMCSETHCYYLMNLKVGAFFETAQNILMIRWLFS | not soluble
